Results taken from paper PMC8786784.
Several values for one entry are separate records, joined by “and”; a condition that tells them apart may be missing. Equal entries are not always repeated.

Target: amyloid-β (Aβ) peptide (human (endogenous in brain tissue)) (UniProt P05067)
Assay: 2D-PAGE immunoblot; Aβ immunoprecipitated (4G8 and 6E10) from tris- and FA-soluble fractions of human frontal cortex, eluted in rehydration buffer (8.3 M urea, 0.5% CHAPS, 20 mM DTT), IEF pH 3-10, 4-12% Bis-Tris gel, blot with 6E10; oligomer size assigned from the band's mass

stoichiometry N: 5 and 6
Substance: amyloid-β (Aβ) peptide (from UniProt P05067 672-713) (peptide; other documents disagree on this pair)
